± gives the uncertainty stated by the source.
Assay: amyloid nucleation score (Sup35N fusion, yeast selection) (log enrichment); library NNK1; higher = more nucleation; inactive = no reads after selection
Summary of the method: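 In psi-negative yeast, Sup35N fusions carrying peptides of 20 random codons were induced with 100 μM copper sulfate for 24 hours. The cells then grew 7 days at 30°C on medium lacking adenine and uracil, and plasmid inserts from input and output were Illumina-sequenced, excluding sequences with under 100 input reads. Nucleation score is the DiMSum log enrichment of output over input reads, centred on the mode score of non-aggregating sequences.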

Substance | amyloid nucleation score
ETITKVVQQLSRLDKLSTYW | 1.53 ± 0.26
NACDCQPMFVMQWYRRVEPR | -0.167 ± 0.53
SVTERCKLQSHHDMVGGM | 3.37 ± 0.13
LRLCWLNQVRNKQGL | -0.481 ± 0.92
VLKCHSGSCRIYTNDSYVAL | 0.387 ± 0.17
ISALRFSTLRSCGAGPGVAS | -0.859 ± 1.2
HIGYCQSVSTFSR | 10.2 ± 0.046
SCRRYSYKCSVL | -0.16 ± 1.4
SFEDGGLMFMAPDIRGTGTR | 0.884 ± 0.79
KQRSN | 0.746 ± 0.7
CLVKTSSVSTIWLVSCNTRT | 0.648 ± 0.55
VLSPFTVKIDIKSKISVLGP | 4.11 ± 0.15
IGSMNCRLLVTWKMVWLVPH | -0.187 ± 0.5
CYSVIRREQNLNILV | 1.71 ± 0.53
CVTLCSDVSYSTYNWLPFIR | 0.834 ± 0.44
YLFPDVTRICCMGWSFTLLS | 5.27 ± 0.053
SHLLGINCCCA | 0.131 ± 0.85
FGSDPISCGVWYMCVRGWYG | 0.108 ± 0.3
FMHAFRNQRLNLAGLGFRVA | 0.573 ± 0.62
MHSPRGLE | 1.07 ± 0.79
CSYPHIDIAPRSACPTWTQD | 0.432 ± 0.72
VRNWWDDNYSFTHAYLSTDG | 1.01 ± 0.66

Substance | amyloid nucleation score
KYWWY | 0.265 ± 0.2
LLLYSGEFNS | -0.433 ± 0.39
GLLSRNLVLRGLNSGNWPFG | inactive
GEGSCGVSLSSMYLQWGARV | -0.663 ± 0.83
VKGVVYAGH | -1.44 ± 1.8
CVYGGIFYRTGYLYFEVYFY | 0.134 ± 0.31
PQGSVGLEFKNYCVRAACGF | 0.078 ± 0.93
SDSLFPTPLDFKMKIWGIMV | 0.062 ± 0.85
MPLLYSVSHCWFKPAFGWAW | 0.442 ± 0.69
IPTLRSPVNRWPRITMKVWL | -0.161 ± 0.62
RKSEGIDVCGYNISAIYFKC | 0.142 ± 0.64
SLLDWCYINRHM | 0.604 ± 0.44
HALRSTLYMGSSVFLNAMDS | 0.053 ± 1.1
SPFLSAFLSFLTSFYLIFMG | -0.164 ± 0.61
MTSLDFNYGISKLESSFYMY | -0.739 ± 0.29
LSLCSLYNSWQGM | 0.492 ± 0.4
SNNHQFFCDTFDIGWWEVGR | -1.63 ± 2.4
IYDTGVAFDCSLM | inactive
IRAQGHNYWALMRVAEWVVG | 1.75 ± 0.42
IHNFIVSRDRMTGENGSGCM | -0.944 ± 0.41
KLESCN | 0.39 ± 1.2
DHHRFRGLL | 0.657 ± 0.62

Substance | amyloid nucleation score
DINSYVAYLVYEGLVNGSDE | 0.252 ± 0.46
RRILGRYRC | -0.129 ± 1.1
NVPCRVLRFGHLSDIGIDCQ | 0.705 ± 0.9
CSRRFYESPCKEPAA | 0.145 ± 0.43
TFLYKKLTFEVVWGCLIASE | -0.041 ± 0.84
CSDKKLGEWSASWNCNRDRM | -0.171 ± 1.7
AGNRTVYWMLTSVSTSG | 0.64 ± 0.75
DHVSLSDSRKKRSQIGIIHA | 0.978 ± 0.45
GCNSMTRLLRGAWPPPYWRG | 0.274 ± 0.77
YRPWMRYLTLIGNYRHAGHS | 0.633 ± 0.62
RFARHCSRIS | 0.769 ± 0.36
PTSSGNATAWRNLNLLLCEL | 0.328 ± 0.97
WVRSNKGQAGSG | 0.886 ± 1
QRFRTLCNLVFYLGSKVRET | 0.317 ± 0.3
AVSLFAGDQFDDTTRSAQGI | -0.306 ± 0.74
NDTQLRISACYALRDNGEWV | 1.12 ± 0.66
NPKSFNGCVFRLGGVPYFVS | 0.076 ± 0.36
DRMLHKAI | -0.624 ± 1.5
GSCFTVWMIGPGRRTLLQVL | -0.079 ± 0.54
MDKLASLLSSKGCAIKGLRS | -2.19 ± 1.3
RGILNRVTLILDLRVHSSSD | 0.504 ± 0.32
FGNGHSRMHHRTLHTKPRAA | 0.37 ± 1.1

Substance | amyloid nucleation score
NSYTCNMFDLVFCAYTIASI | 4.95 ± 0.057
GFTMSTEGVS | 0.781 ± 0.55
DLKFHLLIWVCRIGSDKNVK | 0.071 ± 1.2
YVLYCICV | 5.95 ± 0.073
WPASLSSCIS | -0.047 ± 0.66
RQLFIGGAPDLC | 0.216 ± 0.59
HNFWLCAVSYQDRVMFLSVF | 0.497 ± 0.31
NCVQARFDERCVRGLGCKFY | -0.724 ± 0.64
FGMIFFLLTMALRDVCVRLR | 7.24 ± 0.084
YSITIRITEYNGVVSTGLHL | 0.325 ± 0.6
CWVYFSNSSVILRR | 0.074 ± 0.84
KKSGRYESVSQGWYDRLLQF | -0.667 ± 0.31
MKRDSFPLFNFCLA | 0.137 ± 0.5
SFVCCFRLPWMGGTKNPMHV | 3.55 ± 0.19
WVRNSLCRQIRRSANHQSGA | inactive
VCLGLSQDLHKSYTVRSAT | -0.009 ± 0.41
EGITHVFIRDGVGSYLKAET | 1.33 ± 0.58
FHFWEMFTQEAAPIWRWF | -0.139 ± 0.75
RTCYNRDTEMSRGCYTMRVA | -0.554 ± 0.77

Reference: the supplement of paper PMC12042874
